Test results: publication PMC4112721 (2013)

Target: HIV-1 envelope glycoprotein gp120 IIIB (HIV-1 (isolate IIIB), UniProt P04578 33-511)
Assay: SPR

B1: VRC01 from stably transformed (transgenic) Nicotiana tabacum plants (antibody, V domains shown)
VH: QVQLVQSGGQMKKPGESMRISCRASGYEFIDCTLNWIRLAPGKRPEWMGWLKPRGGAVNYARPLQGRVTMTRDVYSDTAFLELRSLTVDDTAVYFCTRGKNCDYNWDFEHWGRGTPVIVSS
VL: EIVLTQSPGTLSLSPGETAIISCRTSQYGSLAWYQQRPGQAPRLVIYSGSTRAAGIPDRFSGSRWGPDYNLTISNLESGDFGVYYCQQYEFFGQGTKVQVD
modifications: N-glycan at N297 in the CH2 region (glycopeptide […]), GnGnXF^3 as the major glycan structure | N-glycan in the FR3 of the VL region (glycopeptide […]), GnGnXF^3 as the major glycan structure
- koff: 0.000126 s⁻¹

B2: VRC01 from transiently transformed Nicotiana benthamiana plants (antibody, V domains shown)
VH: B1 VH
VL: B1 VL
modifications: N-glycan at N297 in the CH2 region (glycopeptide […]), GnGnXF^3 as the major glycan structure | N-glycan in the FR3 of the VL region (glycopeptide […]), GnGnXF^3 as the major glycan structure
- koff: 0.000159 s⁻¹

B3: VRC01 from HEK cells (antibody, V domains shown)
VH: B1 VH
VL: B1 VL
modifications: N-glycan at N297 in the CH2 region (glycopeptide […]), GnGnF^6 as the predominant glycan structure | N-glycan in the FR3 of the VL region (glycopeptide […]), at least ten glycan structures
- koff: 5.6e-05 s⁻¹
